Laboratory results reported in patent US7708999B2, “Remedies for arthritis” (Kyowa Hakko Kirin Co., Ltd., priority 2001, dated 2010).

Key:
FGF-8 [1] = target: T1, FGF-8 (Homo sapiens, UniProt P55075); assay: Inhibition by antibody of FGF-8-promoted degradation of extracellular matrix of rabbit chondrocytes; type: cell-based; details: FGF-8 100 ng/mL, 48 hours, 1, 3 or 10 μg/mL tested
T1 construct: purchased R & D
T1 sequence (P55075 23-215 isoform P55075-3 limits assumed): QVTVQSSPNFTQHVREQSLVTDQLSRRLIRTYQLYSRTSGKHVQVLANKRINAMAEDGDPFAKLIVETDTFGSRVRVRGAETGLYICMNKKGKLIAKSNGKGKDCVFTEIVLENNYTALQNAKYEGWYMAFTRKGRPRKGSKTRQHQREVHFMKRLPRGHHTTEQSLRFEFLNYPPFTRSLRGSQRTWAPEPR
Description: Rabbit articular chondrocytes were isolated from both knees and shoulders of 3-week-old New Zealand white female rabbits and cultured according to the method of Tamura et al. (Tamura T. et al., Eur. J. Pharmacol., 419, 269-274, 2001). That is, the joints of both knees and the joints of both shoulders were isolated to collect the epiphyseal cartilages. […] The culture solution was removed, and the amount of glycosaminoglycan in extracellular matrix remaining on the plate was measured by the dimethymethylene blue (DMMB) method (Chandrasekhar S. et al., Anal. Biochem. 161 103-108, 1987). […] To 75 μL of this digested solution were added 25 μL of a guanidine hydrochloride buffer (2.88 mol/L guanidine hydrochloride, 50 mmol/L sodium acetate, pH 6.8) and 200 μL of a DMMB solution, and the absorbance was measured at 530/590 nm. The concentration of glycosaminoglycan of each sample was calculated from the absorbance of chondroitin sulfate (derived from whale cartilages, manufactured by Seikagaku Kogyo) used as a standard. Three experiments were performed for each condition and the mean values and the standard error were calculated.

[2] = test system: rat monoiodoacetic acid-induced osteoarthritis model; assay: Rat monoiodoacetic acid-induced osteoarthritis model; type: in vivo; details: 4 mg/mL, 0.5 mL per 100 g intraperitoneally once; 3 days after monoiodoacetic acid
Description: The rat monoiodoacetic acid-induced osteoarthritis model was produced in the following manner by the method of Guingamp et al. (Guingamp C. et al., Arthritis Rheum., 40, 1670-1679, 1997) using Sprague-Dawley rats (male, 7 weeks old, Japan Charles River).
Monoiodoacetic acid (manufactured by Sigma-Aldrich) prepared with saline to a final concentration of 10 mg/mL was injected into the right knee joint of the rat in an amount of 25 μL. One group consisted of 10 rats. Anti-FGF-8 neutralizing antibody KM1334 was dissolved in saline (manufactured by Otsuka Seiyaku Kojo) to a final concentration of 4 mg/mL, and the antibody solution at a dose of 0.5 mL per 100 g of the body weight was intraperitoneally administered to a KM1334 administrated group once at the injection of monoiodoacetic acid. To saline group, the saline alone was intraperitoneally administered instead of the antibody solution. Further, a sham operated group was arranged, and the saline was injected in the knee joint thereof without the administration of the agent. After 3 days from the injection of monoiodoacetic acid, the joint washing liquid was recovered by the method described in Example 6. The amount of glycosaminoglycan in the joint lavage fluid was measured by the DMMB method described in Example 1.

FGF-8 [3] = target: T1, FGF-8; assay: Inhibition by antibody of FGF-8-promoted production of matrix metalloproteinase-3 from rabbit chondrocytes; type: cell-based; details: FGF-8 100 ng/mL, 48 hours
Description: Rabbit articular chondrocytes were isolated and cultured by the method described in Example 1. After the chondrocytes became confluent, the culture solution was replaced with 0.5 vol % FBS/DMEM, followed by the culturing for 24 hours. The culture solution was removed, and 1 mL of 0.5 vol % FBS/DMEM (non-stimulated group), 0.5 vol % FBS/DMEM comprising FGF-8 (100 ng/mL)(0 group) or 0.5 vol % FBS/DMEM comprising FGF-8 (100 ng/mL) and anti-FGF-8 neutralizing antibody KM1334 (1, 3 or 10 μg/mL) was added, followed by the culturing for 48 hours. After 48 hours, the culture medium was recovered, the matrix metalloproteinase-3 concentration in the culture medium was measured using rabbit matrix metalloproteinase-3 ELISA system (manufactured by Amersham Biosciences). Three experiments were performed for each condition, and the mean values and the standard error were calculated.

B1: KM1334: anti-FGF-8 neutralizing monoclonal antibody produced by hybridoma KM1334 (FERM BP-5451), mouse IgG1 subclass (antibody, V domains shown)
VH: QVQLQQSGAEVARPGASVKLSCKASGYTFTDYYLNWVKQRSGQGLEWIGEIDPGSDSIYYNENLEGRATLTADKSSSTAYMQLNSLTSEDSAVYFCARYGYSRYDVRFVYWGQGTLVTVST
VL: DVLMTQTPLSLPVSLGDQASISCRSSQSLVHSNGRTYLEWYLQKPGQSPKVLIYKVSNRISGVPDRFSGSGSGTDFTLKISRVEAEDLGVYFCFQGSHVPYTFGGGTKLEIK
antibody concentration at which the promotion of degradation of extracellular matrix of the cartilage with FGF-8 was significantly inhibited (FGF-8 [1]): ≥ 3 µg/mL
inhibition of the increase in concentration of glycosaminoglycan in the joint lavage fluid [2]: 42%
antibody concentration at which the production of matrix metalloproteinase-3 from the chondrocytes with FGF-8 was significantly inhibited (FGF-8 [3]): ≥ 1 µg/mL
percent inhibition of matrix metalloproteinase-3 production (FGF-8 [3]; antibody 1 μg/mL): 72%
percent inhibition of matrix metalloproteinase-3 production (FGF-8 [3]; antibody 3 μg/mL): 74%
percent inhibition of matrix metalloproteinase-3 production (FGF-8 [3]; antibody 10 μg/mL): 100%
